Read-outs that look alike come from different tables or passages of the source.
Legend:
NKG2D (Homo sapiens) [1] = molecular target: NKG2D (Homo sapiens) (UniProt P26718); settings: cited from earlier work
NKG2D (Homo sapiens) [2] = molecular target: NKG2D (Homo sapiens) (UniProt P26718); settings: cited from earlier work; remark: listed apart in the source
[3] = molecular target: NKG2D (in the affinity measurement) (UniProt O54709)
Chain of UniProt O54709 (O54709 whole entry): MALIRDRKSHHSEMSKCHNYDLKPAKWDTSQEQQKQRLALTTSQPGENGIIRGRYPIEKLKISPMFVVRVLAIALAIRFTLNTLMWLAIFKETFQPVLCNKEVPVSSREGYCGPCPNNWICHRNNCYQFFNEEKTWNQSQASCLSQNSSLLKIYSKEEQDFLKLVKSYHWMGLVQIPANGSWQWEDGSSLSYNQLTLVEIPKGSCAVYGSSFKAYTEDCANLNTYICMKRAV

Chain of UniProt P26718 (P26718 whole entry): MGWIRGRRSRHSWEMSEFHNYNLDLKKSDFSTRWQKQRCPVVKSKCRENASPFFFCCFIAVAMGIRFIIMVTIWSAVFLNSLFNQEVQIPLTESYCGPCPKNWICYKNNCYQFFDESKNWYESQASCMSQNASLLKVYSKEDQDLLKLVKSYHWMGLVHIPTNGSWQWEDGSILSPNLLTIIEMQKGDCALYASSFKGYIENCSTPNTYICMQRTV

| Kd [3] [nM] | Substance | also measured |
| --- | --- | --- |
| – | MICA (from UniProt Q29983) | Kd (NKG2D (Homo sapiens) [1]): 1000 nM |
| – | MICB (from UniProt Q29980) | Kd (NKG2D (Homo sapiens) [2]): 1000 nM |
| 19 | secMULT1 (secreted ectodomain fragment of HA-MULT1) (domain or fragment) | – |
| 13 | shed HA-MULT1 (domain or fragment) | – |
